Data: patent US20240425589A1, “CYTOTOXICITY-INDUCING THERAPEUTIC AGENT FOR USE IN TREATMENT OF CANCER” (CHUGAI SEIYAKU KABUSHIKI KAISHA, priority 2021, published 2024)

Experiments:
recombinant human CD3eg = recombinant human CD3eg (Homo sapiens, UniProt P07766+P09693); assay: Biacore 8K SPR affinity to human CD3eg; format: binding; settings: 25 degree C, pH 7.4
Experimental: (§1) The binding affinity of the anti-CLDN6/Dual-Fab tri-specific antibody against recombinant human and cyno CD3eg (gamma and epsilon subunits of CD3) at pH 7.4 was determined at 25 degree C. using Biacore 8K instrument (GE Healthcare). The binding affinity of the anti-CLDN6/Dual-Fab tri-specific antibody against recombinant human and cyno CD137 at pH 7.4 was determined at 37 degree C. using Biacore 8K instrument (GE Healthcare). Anti-human Fc (GE Healthcare) antibody was immobilized onto all flow cells of a CM4 sensor chip using amine coupling kit (GE Healthcare). Tested antibody and analytes were prepared in ACES pH 7.4 containing 20 mM ACES, 150 mM NaCl, 0.05% Tween 20, 0.005% NaN3. Anti-CLDN6/Dual-Fab tri-specific antibody was captured onto the sensor surface by anti-human Fc. Antibody capture levels were aimed at 300 resonance unit (RU). Recombinant CD3eg and CD137 were injected at both 500 and 2000 nM, followed by dissociation. Sensor surface was regenerated each cycle with 3M MgCl2. […] Binding affinities were determined by processing and fitting the data to 1:1 binding model using Biacore Insight Evaluation software (GE Healthcare).

recombinant human CD137 = target: T1, recombinant human CD137 (Homo sapiens, UniProt Q07011); assay: Biacore 8K SPR affinity to human CD137; format: binding; settings: human CD137, 37 degree C, pH 7.4
T1 construct: made in house; host or cells: FreeStyle293F
T1 sequence (Q07011 with tags, fused parts or gaps): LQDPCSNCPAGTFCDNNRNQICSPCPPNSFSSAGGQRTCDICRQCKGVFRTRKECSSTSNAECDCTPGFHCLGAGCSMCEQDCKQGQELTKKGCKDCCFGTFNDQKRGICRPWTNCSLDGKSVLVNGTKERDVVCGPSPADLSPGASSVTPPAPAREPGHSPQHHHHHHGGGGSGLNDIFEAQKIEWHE
Experimental: as §1

human CLDN6 VLP = target: T2, human CLDN6 VLP (Homo sapiens, UniProt P56747); assay: Biacore T200 SPR affinity to human CLDN6 VLP; format: binding; settings: human CLDN6, 25 degree C, pH 7.4
T2 sequence (P56747 1-220): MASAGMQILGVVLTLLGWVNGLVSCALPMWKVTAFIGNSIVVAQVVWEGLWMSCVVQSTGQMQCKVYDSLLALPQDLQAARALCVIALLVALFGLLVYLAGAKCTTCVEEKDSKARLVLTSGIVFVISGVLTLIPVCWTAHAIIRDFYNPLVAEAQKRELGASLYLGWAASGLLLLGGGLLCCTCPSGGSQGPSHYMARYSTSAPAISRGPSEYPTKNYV
Experimental: The binding affinity of the anti-CLDN6/Dual-Fab tri-specific antibody against human and cynomolgus (cyno) CLDN6 VLP (virus-like particle) at pH 7.4 was determined at 25 degree C. using Biacore T200 instrument (GE Healthcare). Anti-human CD81 (BD Pharmingen) antibody was immobilized onto all flow cells of a C1 sensor chip using amine coupling kit (GE Healthcare). Human and cyno CLDN6 VLP were captured onto the sensor surface by the anti-human CD81 antibody. Each VLP was 5-fold dilution by buffer (20 mM NaPhosphate, 150 mM NaCl, 0.1 mg/mL BSA, 0.005% NaN3, pH 7.4). Tested antibody was prepared in buffer (20 mM NaPhosphate, 150 mM NaCl, 0.1 mg/mL BSA, 0.005% NaN3, pH 7.4). Anti-CLDN6/Dual-Fab tri-specific antibody was injected at 50 and 200 nM, followed by dissociation. Sensor surface was regenerated each cycle with 0.1% SDS and 100 mM H3PO4. […] Binding affinities were determined by processing and fitting the data to 1:1 binding model using Biacore T200 Evaluation software, version 2.0 (GE Healthcare).

CLDN6-LLC1 = CLDN6-LLC1 syngenic model, combination with anti-mouse PD-L1 antibody; format: in vivo, hCD137 KI/hCD3Tg mice; settings: 17 days after transplantation; CS4135 0.2 mg/kg iv day 6, anti-mouse PD-L1 antibody 10 mg/kg ip days 6, 8, 10, 12, 14, 17
Experimental: In this test, lung cancer cell line LLC1 forced to express claudin 6 (CLDN6) (CLDN6-LLC1) and hCD137 KI/hCD3Tg mice (described in the aforementioned Example 7) were used. The CLDN6-LLC1 cell line was transplanted subcutaneously to the right flank of the mice, and the mice were divided into groups 6 days after transplantation. Individuals whose tumor volume reached 104 to 140 mm^3 were divided into groups. The vehicle and the CS4135 antibody were administered into the mouse tail vein 6 days after transplantation. PBS containing 0.05% Tween-20 was used as the vehicle. The vehicle and anti-mouse PD-L1 antibody (BioX cell) were administered intraperitoneally to the mice 6, 8, 10, 12, 14, and 17 days after transplantation.
Tumor volume was measured 6, 10, 12, 14, and 17 days after transplantation, and the average tumor volume was indicated for each group. The tumor volume was calculated by the following equation: […]
Tumor Growth Inhibition (TGI) was calculated by the following equation: […]

OV-90 = assay: Mouse peritoneal dissemination model; format: in vivo, NOD/ShiJic-scid Jcl mice; settings: 5 mg/kg iv
Experimental: To evaluate the effect of anti-CLDN6/Dual-Fab tri-specific antibody CS4135 (the same antibody as PPU4135 described in Table 9 of Example 6 described above) against peritoneal metastasis of ovary cancer, the drug efficacy was evaluated using a mouse peritoneal dissemination model. Human ovarian cancer cell line OV-90 (ATCC) was used as target cells. OV-90 cells were transplanted intraperitoneally to NOD/ShiJic-scid Jcl mice at 5×10^6 cells/500 μL/animal. Three days after transplantation, human T cells separated from human PBMC and expansively cultured using Dynabeads Human T-Activator CD3/CD28 (Gibco) were administered intravenously at 3×10^7 cells/400 μL. Furthermore, the vehicle (PBS containing 0.05% Tween-20) or a CS4135 antibody solution at 5 mg/kg was administered intravenously.
After tumor transplantation, the mice were observed every 2 to 7 days, and the conditions of the mice were assessed according to the humane endpoint guideline.

recombinant cyno CD3eg = target: T3, recombinant cyno CD3eg (Macaca fascicularis, UniProt Q95LI5); assay: Biacore 8K SPR affinity to cyno CD3eg; format: binding, cynomolgus; settings: 25 degree C, pH 7.4
T3 sequence (Q95LI5 22-117 limits assumed): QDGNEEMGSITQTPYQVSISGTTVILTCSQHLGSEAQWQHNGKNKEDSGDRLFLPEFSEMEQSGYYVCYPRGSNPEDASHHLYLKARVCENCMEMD
T3 sequence (Q95LI7 23-115 partner limits assumed): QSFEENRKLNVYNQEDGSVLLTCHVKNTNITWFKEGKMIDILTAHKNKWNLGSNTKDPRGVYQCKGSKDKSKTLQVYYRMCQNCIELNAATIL
Experimental: as §1

recombinant human CD3eg, sequence (P07766+P09693 fused): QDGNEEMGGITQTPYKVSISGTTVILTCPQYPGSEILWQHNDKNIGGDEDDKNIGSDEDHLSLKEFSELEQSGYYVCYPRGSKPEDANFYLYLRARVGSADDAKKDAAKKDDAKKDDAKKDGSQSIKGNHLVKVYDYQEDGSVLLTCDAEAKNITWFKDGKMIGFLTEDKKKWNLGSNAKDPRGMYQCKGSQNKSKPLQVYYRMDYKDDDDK

B1: PPU4135: anti-CLDN6/Dual-Fab tri-specific antibody, chains SEQ ID NOs 42, 51, 56, 69; CS4135 same antibody (protein)
chain 1: QVQLVESGGGVVQPGGSLRLSCAASGFTFSSYTMSWVRQAPGQGLEWMGTISSGGGRTYYPDSVKGRFTISRDNSKNTLYLQMNSLRDEDTAVYYCARGDYRYDGFAYWGEGTLVTVSSASTKGPSVFPLAPSSKSTSGGTAALGCLVEDYFPEPVTVSWNSGALTSGVHTFPAVLESSGLYSLSSVVTVPSSSLGTQTYICNVNHKPSNTKVDKRVEPKSCDKTHTCPPCPAPEAAGGPSVFLFPPKPKDTLMISRTPEVTCVVVDVSHEDPEVKFNWYVDGVEVHNAKTKPREEQYASTYRVVSVLTVLHQDWLNGKEYKCKVSNKALPAPIEKTISKAKGQPREPQVYTLPPSREEMTKNQVSLTCLVKGFYPSDIAVEWESNGQPENNYKTTPPVLDSDGSFFLYSKLTVDKSRWQQGNVFSCSVMHEALHNHYTQESLSLSP
chain 2: DIQMTQSPSSLSASVGDRVTITCRASYNIDSYLAWYQQKPGKAPELLIYYSTLLVDGVPDRFSGSRSGTDFTLTISSLQPEDFATYYCQHYYSIPYTFGQGTKVEIERTVAAPSVFIFPPSDEQLKSGTAKVVCLLNNFYPREAKVQWKVDNALQSGNSKESVTEQDSKDSTYSLSSTLTLSKADYEKHKVYACEVTHQGLSSPVTKSFNRGEC
chain 3: QVQLVESGGGLVQPGRSLRLSCAASGFKFSNVWFHWVRQAPGKGLEWVAQIKDYYNAYAAYYAPSVKGRFTISRDDSKNSIYLQMNSLKTEDTAVYYCHYVHYASASTLLPAEGVDAWGQGTTVTVSSASTKGPSVFPLAPSSKSTSGGTAALGCLVKDYFPEPVTVSWNSGALTSGVHTFPAVLKSSGLYSLSSVVTVPSSSLGTQTYICNVNHKPSNTKVDKRVEPKSCDKTHTCPPCPAPEAAGGPSVFLFPPKPKDTLMISRTPEVTCVVVDVSHEDPEVKFNWYVDGVEVHNAKTKPREEQYASTYRVVSVLTVLHQDWLNGKEYKCKVSNKALPAPIEKTISKAKGQPREPQVYTLPPSRKEMTKNQVSLTCLVKGFYPSDIAVEWESNGQPENNYKTTPPVLDSDGSFFLYSKLTVDKSRWQQGNVFSCSVMHEALHNHYTQKSLSLSP
chain 4: DIVMTQSPLSLPVTPGEPASISCQPSQEVVHMNRNTYLHWYQQKPGQAPRLLIYKVSNRFPGVPDRFSGSGSGTDFTLKISRVEAEDVGVYYCAQGTSHPFTFGQGTKLEIKRTVAAPSVFIFPPSDEQLKSGTAEVVCLLNNFYPREAKVQWKVDNALQSGNSEESVTEQDSKDSTYSLSSTLTLSKADYEKHKVYACEVTHQGLSSPVTKSFNRGEC
ka (recombinant human CD3eg): 78000 M⁻¹ s⁻¹ | kd (recombinant human CD3eg): 0.0266 s⁻¹ | ka (recombinant human CD137): 12600 M⁻¹ s⁻¹ | kd (recombinant human CD137): 0.000591 s⁻¹ | ka (human CLDN6 VLP): 217000 M⁻¹ s⁻¹ | kd (human CLDN6 VLP): 0.000794 s⁻¹ | Tumor growth inhibition: TGI (CLDN6-LLC1): 71% | 50% survival rate found (OV-90): 71 days after transplantation | mice showing aggravated conditions observed from (OV-90; vehicle from 48 days): 57 days after transplantation | survival rate (OV-90; 66 days after transplantation): 78% | survival rate (OV-90; 80 days after transplantation): 22% | ka (recombinant cyno CD3eg): 101000 M⁻¹ s⁻¹ | kd (recombinant cyno CD3eg): 0.0332 s⁻¹
